# B1: IM-OVA: 500 μg of OVA (ovalbumin) injected intramuscularly (protein, UniProt P01012 2-386, looked up)
# Ovalbumin: GSIGAASMEFCFDVFKELKVHHANENIFYCPIAIMSALAMVYLGAKDSTRTQINKVVRFDKLPGFGDSIEAQCGTSVNVHSSLRDILNQITKPNDVYSFSLASRLYAEERYPILPEYLQCVKELYRGGLEPINFQTAADQARELINSWVESQTNGIIRNVLQPSSVDSQTAMVLVNAIVFKGLWEKAFKDEDTQAMPFRVTEQESKPVQMMYQIGLFRVASMASEKMKILELPFASGTMSMLVLLPDEVSGLEQLESIINFEKLTEWTSSNVMEERKIKVYLPRMKMEEKYNLTSVLMAMGITDVFSSSANLSGISSAESLKISQAVHAAHAEINEAGREVVGSAEAGVDAASVSEEFRADHPFLFCIKHIATNAVLFFGRCVSP
# System: OVA-specific IgG
# Assay: OVA-specific IgG by ELISA after single-dose immunization
# Assay type: in vivo
# Conditions: SD rats, two weeks after injection, single dose (IM 500 μg OVA, MN 200 μg OVA)
# Experimental: 4-week-old SD rats are divided into four groups. Rats of the first three groups are injected with saline, OVA, and chitosan hydrogel loaded with OVA by intramuscular inoculation, respectively. The fourth group is administrated with OVA through the microneedle patch of the present embodiment. In detail, the SD rat is weighed, anesthetized, and shaved. 200 μl of saline is injected into the thigh of each SD rat of the first group (“IM saline” group). 500 μg of OVA in the same volume are injected into the thigh of each SD rat of the second group (“IM-OVA” group). 200 μl of chitosan hydrogel loaded with 500 μg of OVA (mixed in the same ratio as the microneedle patch) are injected into the thigh of each SD rat of the third group (“IM-OVA+CS” group). A microneedle patch encapsulating 200 μg of OVA is applied the each SD rat of the fourth group (“MN-OVA” group). The blood of each SD rat of each group sampled at the 0, 2nd and 4th week after injection is centrifuged for 5 minutes at 3000 rpm to separate serum from blood cells in the plasma. IgG levels in the collected serum are then evaluated by ELISA.
molecule,measurement,value
B1,OVA-specific IgG level,much lower than the MN-OVA and IM-OVA+CS group
